Assay results reported in PMC6443806 (Scientific Reports, 2019).
Each block holds one molecule with its values, some of them ahead of it.

How the values were obtained:
[1] = target: His54 (UniProt position 515, KNAVRHNLSLA); test: stability (GdmCl equilibrium unfolding followed by intrinsic Trp fluorescence) with Wyman-Tanford linkage analysis; conditions: 37 °C, Not stated for the unfolding buffer (standard buffer contains 150 mM NaCl). GdmCl 0-6 M in the unfolding series., buffer at different pH values (composition not restated; standard buffer is 20 mM HEPES, 150 mM NaCl, 2 mM β-mercaptoethanol) supplemented with GdmCl, DNA-free
[2] = target: T1, His59 (UniProt position 520, HNLSLHKCFVR); test: kinetics (SEC-monitored dimer dissociation) with Wyman-Tanford linkage analysis; conditions: 37 °C, 150 mM NaCl, standard buffer (20 mM HEPES, 150 mM NaCl, 2 mM β-mercaptoethanol) adjusted to different pH values, DNA-free
[3] = target: T1, His59; test: stability (GdmCl equilibrium unfolding followed by intrinsic Trp fluorescence) with Wyman-Tanford linkage analysis; conditions: 37 °C, Not stated for the unfolding buffer (standard buffer contains 150 mM NaCl). GdmCl 0-6 M in the unfolding series., buffer at different pH values (composition not restated; standard buffer is 20 mM HEPES, 150 mM NaCl, 2 mM β-mercaptoethanol) supplemented with GdmCl, DNA-free
[4] = target: forkhead domain of human FoxP1, H59A mutant (human); test: SEC; isolated dimer diluted to 5 μM in standard buffer (20 mM HEPES, 150 mM NaCl, 2 mM β-mercaptoethanol) at pH 6.0, 37 °C, aliquots over 2 h on Superdex 75; dimer to monomers; Kd from the equilibrium dimer fraction, koff from a single exponential decay, kon derived from Kd = koff/kon
[5] = target: forkhead domain of human FoxP1, H59A mutant (human); test: SEC; isolated dimer diluted to 5 μM in standard buffer (20 mM HEPES, 150 mM NaCl, 2 mM β-mercaptoethanol) at pH 7.8, 37 °C, aliquots over 2 h on Superdex 75; dimer to monomers; Kd from the equilibrium dimer fraction, koff from a single exponential decay, kon derived from Kd = koff/kon
[6] = target: forkhead domain of human FoxP1, H59A mutant (human); test: SEC; isolated dimer diluted to 5 μM in standard buffer (20 mM HEPES, 150 mM NaCl, 2 mM β-mercaptoethanol) at pH 5.0, 37 °C, aliquots over 2 h on Superdex 75; dimer to monomers; Kd from the equilibrium dimer fraction, koff from a single exponential decay, kon derived from Kd = koff/kon
[7] = target: the molecule itself; test: SEC; isolated dimer diluted to 5 μM in standard buffer (20 mM HEPES, 150 mM NaCl, 2 mM β-mercaptoethanol) at pH 6.0, 37 °C, aliquots over 2 h on Superdex 75; dimer to monomers; Kd from the equilibrium dimer fraction, koff from a single exponential decay, kon derived from Kd = koff/kon
[8] = target: the molecule itself; test: SEC; isolated dimer diluted to 5 μM in standard buffer (20 mM HEPES, 150 mM NaCl, 2 mM β-mercaptoethanol) at pH 7.8, 37 °C, aliquots over 2 h on Superdex 75; dimer to monomers; Kd from the equilibrium dimer fraction, koff from a single exponential decay, kon derived from Kd = koff/kon
[9] = target: the molecule itself; test: SEC; isolated dimer diluted to 5 μM in standard buffer (20 mM HEPES, 150 mM NaCl, 2 mM β-mercaptoethanol) at pH 5.5, 37 °C, aliquots over 2 h on Superdex 75; dimer to monomers; Kd from the equilibrium dimer fraction, koff from a single exponential decay, kon derived from Kd = koff/kon
[10] = target: the molecule itself; test: SEC; isolated dimer diluted to 5 μM in standard buffer (20 mM HEPES, 150 mM NaCl, 2 mM β-mercaptoethanol) at pH 5.0, 37 °C, aliquots over 2 h on Superdex 75; dimer to monomers; Kd from the equilibrium dimer fraction, koff from a single exponential decay, kon derived from Kd = koff/kon
[11] = target: the molecule itself; test: SEC; isolated dimer diluted to 5 μM in standard buffer (20 mM HEPES, 150 mM NaCl, 2 mM β-mercaptoethanol) at pH 7.0, 37 °C, aliquots over 2 h on Superdex 75; dimer to monomers; Kd from the equilibrium dimer fraction, koff from a single exponential decay, kon derived from Kd = koff/kon
[12] = monomeric folding intermediate (I)

Molecule: Forkhead box protein P1 (FoxP1), forkhead DNA-binding domain, H59A mutant (Homo sapiens; H59A)
pKa [1, 12]: 5.3 | pKa ([1]; unfolded state (U)): 5.9

Molecule: Forkhead box protein P1 (FoxP1), forkhead DNA-binding domain, wild type (Homo sapiens)
pKa ([2]; domain-swapped dimer (D)): 5.5 | pKa ([2]; monomer (M)): 7.3 | pKa ([2]; transition state (‡) for domain swapping): 5.5 | pKa [3, 12]: 5.7 | pKa ([3]; unfolded state (U)): 7.7

Kd [4]: 5.9 µM | koff [4]: 0.000628 s⁻¹ | kon [4]: 107 M⁻¹ s⁻¹ | Kd [5]: 7.5 µM | koff [5]: 0.000723 s⁻¹ | kon [5]: 96.7 M⁻¹ s⁻¹ | Kd [6]: 7.9 µM | koff [6]: 0.000988 s⁻¹ | kon [6]: 125 M⁻¹ s⁻¹
Molecule: forkhead domain of human FoxP1, H59A mutant (domain or fragment)

B1: forkhead domain of human FoxP1, wild type (domain or fragment)
chain: AEVRPPFTYASLIRQAILESPEKQLTLNEIYNWFTRMFAYFRRNAATWKNAVRHNLSLHKCFVRVENVKGAVWTVDEVEFQKRRPQK
Kd [7]: 3.7 ± 0.3 µM | koff [7]: 0.000553 s⁻¹ | kon [7]: 150 M⁻¹ s⁻¹ | Kd [8]: 0.6 ± 0.1 µM | koff [8]: 0.00106 s⁻¹ | kon [8]: 1790 M⁻¹ s⁻¹ | Kd [9]: 13.1 ± 0.2 µM | koff [9]: 0.000675 s⁻¹ | kon [9]: 51.7 M⁻¹ s⁻¹ | Kd [10]: 31.2 ± 0.3 µM | koff [10]: 0.00235 s⁻¹ | kon [10]: 58.3 M⁻¹ s⁻¹ | Kd [11]: 0.8 ± 0.1 µM | koff [11]: 0.00113 s⁻¹ | kon [11]: 1340 M⁻¹ s⁻¹
